According to US8303957B2, “Mutated immunogenic peptides derived from R9M, polynucleotides coding for same and therapeutic uses thereof” (Institut Pasteur, priority 2000, dated 2012):
Where “and” joins values, the source holds several entries; their conditions need not be identical. Equal entries are not always repeated. Entries after “also recorded” stand apart in the source; their conditions may differ. Marks after values point to notes of the source that are not given here. Non-standard residues stand in square brackets, D forms with d. No end group written: not given here. Abu = CC[C@H](N)C(=O)O

Tests used:
HLA-A2.01 molecule [1] = biological target: T1, HLA-A2.01 molecule (Homo sapiens, UniProt P04439, D140Y/D185E/D98H/E176V/E277Q/G131W/G231S/I119V/I121R/I166T/I218V/L300P/L318F/N151K/N90K/P208A/P217A/Q86G/Q94H/R138H/R169H/T345S); assay: Inhibition of binding of 125I-F10V (HBVc.18-27) to soluble HLA-A2.01 molecules
T1 construct: stability conferred on the peptide MHC complex thus formed at the cell surface by using tap T2 cells expressing HLA-A*02.01; endogenous in cells; host or cells: T2 cells
Procedure: The product of the chimeric genes resulting from the translocation (12;21) is a neoprotein which is expressed in the leukemic cells of common B-ALL type and which can be detected by Western blot. […] In a first step, the capacity of 9 junctional nonapeptides to inhibit the binding to soluble HLA-A*0201 was measured.

HLA-A2.01 molecule [2] = biological target: T1, HLA-A2.01 molecule; assay: Stabilization of HLA-A2.01 molecules at the surface of T2 cells (RA and DC50); format: binding; conditions: for Measurement of stabilization DC50 (half-life of peptide-HLA-A2.1 stabilized complexes): overnight incubation, indirect immunofluorescence/FACS at 0, 2, 4 and 5 h; for Measurement of stabilization RA: ratio of concentrations of tested versus reference peptide to attain 20% of maximal number of stabilized molecules
From the text: A person well-acquainted with the field of the invention will know how to obtain different mutated and derived peptides and will also know how to determine which of all of the peptides obtained are the peptides having adequate biological activity. […] The term DC50 characterizing the half-life of the peptide HLA-A2.01 complex is described in the publication “H-2 class 1 knockout, HLA-A2.1-transgenic mice: a versatile animal model for preclinical evaluation of antitumor immunotherapeutic strategies” (European Journal of Immunology: 29:3112-21, 1999). This half-life ought normally to make it capable of inducing in vivo or in vitro a cytotoxic immune response. Preferably, the peptide obtained will slow down the growth of lymphoblastic tumor cells when administered to a leukemic receiver and will trigger a cytotoxic T response to the leukemic cells of common type B-ALL with t(12;21) of the leukemic receiver.
It is known that the affinity of an epitopic peptide for the MHC predicts in part its immunogenic potential. This affinity can be measured by its binding capacity to class I MHC and by the stability conferred on the peptide MHC complex thus formed at the cell surface by using tap T2 cells expressing HLA-A*02.01.
These preliminary results have subsequently been used to optimize further the R9M peptide. […] The binding tests performed in vitro by using the soluble HLA-A2.01 molecules and T2 cells have shown that the binding to and the stabilization capacity for the HLA-A2.01 molecules was greater than that of the wildtype R9M peptide (Table 2).

[3] = system: EL4 S3-Rob-HHD cells expressing the TEL/AML1 fusion protein; assay: Tumor model in HHD mice immunized with peptide and injected with tumor cells; conditions: groups of 8 HHD mice immunized beforehand; for development of tumors (in words): FIG. 3; for survival of the mice (in words): FIG. 4
[4] = system: RMAS-HHD cells stimulated with the mutated peptide; assay: Secondary CTL response of immunized HHD mice against RMAS-HHD cells stimulated with the mutated peptide; format: in vivo; conditions: for R/T (mice responders versus total of mice tested): responder = at least 10% specific lysis
From the text: (§1) The immunogenicity of the mutated peptides was then studied in the HHD transgenic mouse (H2 class 1—negative and transgenic for HLA-A*02.01). These mice are described in European Journal of Immunology, 29:3112-21, 1999. Groups of more than 10 HHD mice were immunized by the synthetic peptides (emulsion in IFA with the helper peptide HBVcore128-140 as described previously in Firat et al., Eur. J. Immunol. 29:3112-21 (1999)).
(§2) On the other hand, the mutated peptides (having single or double substitutions) induce a strong CTL activity and lyse the TEL AML* tumor lines in the majority of cases (Table 3 and Table 4). The enhanced immunogenicity of the mutated R9M peptides was then confirmed in vitro by using mononucleated cells of 5 healthy HLA-A*02.01 subjects (FIG. 2).

TEL/AML+ EL4-HHD cells = assay: Tertiary CTL response of immunized HHD mice against TEL/AML+ EL4-HHD cells; format: in vivo; conditions: responder = at least 10% specific lysis, TEL/AML+ EL4-HHD targets
From the text: as §1, §2

[5] = system: RMAS-HHD cells stimulated with the mutated peptide; assay: Tertiary CTL response of immunized HHD mice against RMAS-HHD cells stimulated with the mutated peptide; format: in vivo; conditions: for R/T (mice responders versus total of mice tested): responder = at least 10% specific lysis, targets with mutated peptide
From the text: as §1, §2

[6] = system: RMAS-HHD cells stimulated with the wildtype peptide; assay: Secondary CTL response of immunized HHD mice against RMAS-HHD cells stimulated with the wildtype peptide; format: in vivo; conditions: responder = at least 10% specific lysis, targets with wildtype peptide
From the text: as §1, §2

HLA-A2.1*T2 target cells = conditions: results in the public domain; cited from earlier work
[7] = secondary response, targets with mutated peptide

Row | percentage inhibition of the binding of F10V, ratio peptide/125I-F10V 10/1 (HLA-A2.01 molecule [1]) | percentage inhibition of the binding of F10V, ratio peptide/125I-F10V 25/1 (HLA-A2.01 molecule [1]) [%] | Measurement of stabilization DC50 (half-life of peptide-HLA-A2.1 stabilized complexes) (HLA-A2.01 molecule [2]) [h] | Measurement of stabilization RA (HLA-A2.01 molecule [2]) | Substance | R/T (mice responders versus total of mice tested) [4, 7] | R/T (mice responders versus total of mice tested) (TEL/AML+ EL4-HHD cells) | R/T (mice responders versus total of mice tested) [5] | R/T (mice responders versus total of mice tested) [6] | other results
1 | 47^d % | 57 | 2 to 4 | 10-100 | AMPIGRIAE [A9E] | – | – | – | – | –
2 | – | – | 0 | >100 | PIGRIAECI [P91] | – | – | – | – | –
3 | 64% | 69 | <2 | 2.9 | RIAECILGM (listed as Homo sapiens) [R9M, reference compound] | 1/18 | 5/10 | 2/10 | – | stability of the peptide/HLA-A2.01 complex at the surface of T2 cells (in words) (HLA-A2.01 molecule [2]): quite unstable; also recorded: not very stable; capacity to induce CTLs from the peripheral blood of healthy donors (in words) (HLA-A2.1*T2 target cells): has been demonstrated; % of clear lysis (maximal lysis for each mouse responder) ([4]; secondary response, E/T ratio 60:1, targets with mutated peptide): (13) %; CTL response induced in immunized HLA-A2.01 transgenic (HHD) mice (in words) ([4]; synthetic peptide in IFA with helper peptide HBVcore128-140): inconstancy and the weakness of the CTL responses induced; also recorded: inconstancy and weakness of the CTL responses induced; also recorded: weak specific CTL response
4 | 79% | 87 | 2 to 5 | 0.9 | YIAEAILGM [Y9M-5A] | 8/10 | 5/10 | 9/10 | 7/10 | –
5 | – | – | <2 | >100 | YIAECILGM [Y9M] | – | – | – | – | –
6 | 25% | 37 | 2 to 5 | 1.4 | YIAESILGM [Y9M-5S] | 9/10 | 6/10 | 9/10 | 3/10 | –
7 | 26% | 26 | 2 to 5 | 0.7 | YIAEα-butILGM (YIAE[Abu]ILGM) [Y9M-5α-but] | – | – | – | – | –
8 | – | – | <2 | >100 | YIGRIAECI [Y9I] | – | – | – | – | –
9 | – | – | 0 | >100 | YMPIGRIAE [Y9E] | – | – | – | – | –

Row | Substance | percentage inhibition of the binding of F10V, ratio peptide/125I-F10V 10/1 (HLA-A2.01 molecule [1]) | percentage inhibition of the binding of F10V, ratio peptide/125I-F10V 25/1 (HLA-A2.01 molecule [1]) [%] | Measurement of stabilization DC50 (half-life of peptide-HLA-A2.1 stabilized complexes) (HLA-A2.01 molecule [2]) [h] | Measurement of stabilization RA (HLA-A2.01 molecule [2]) | R/T (mice responders versus total of mice tested) [4, 7] | R/T (mice responders versus total of mice tested) (TEL/AML+ EL4-HHD cells) | R/T (mice responders versus total of mice tested) [5] | R/T (mice responders versus total of mice tested) [6] | other results
10 | ILKEPVHGV [HIV 1 rt.476, reference compound] | – | – | 5 | 1 | – | – | – | – | –
11 | RIAEAILGM [R9M-5A] | 59% | 72 | <2 | 3.2 | 2/10 | 6/10 | 1/10 | 2/10 | development of tumors (in words) [3]: capable of slowing down the development of tumors; survival of the mice (in words) [3]: prolonging the survival of the mice; % of clear lysis (maximal lysis for each mouse responder) ([5]; E/T ratio 60:1, targets with mutated peptide): (20) %
12 | RIAESILGM [R9M-5S] | 74% | 75 | 2 | 2.2 | 11/14 | 11/14 | 6/10 | 6/14 | development of tumors (in words) [3]: capable of slowing down the development of tumors; survival of the mice (in words) [3]: prolonging the survival of the mice
13 | RIAEα-butILGM (RIAE[Abu]ILGM) [R9M-5α-but] | 27% | 49 | 2 | 2 | – | – | 8/10 | – | development of tumors (in words) [3]: capable of slowing down the development of tumors; survival of the mice (in words) [3]: prolonging the survival of the mice; R/T (mice responders versus total of mice tested) ([4]; secondary response, targets with mutated peptide, listed as R9M-5a-but): 7/10 and 8/10; R/T (mice responders versus total of mice tested) (TEL/AML+ EL4-HHD cells; listed as R9M-5a-but): 7/10 and 10/10; R/T (mice responders versus total of mice tested) ([6]; listed as R9M-5a-but): 5/10 and 8/10
